Data: patent US20230220085A1 (BRIGHAM AND WOMEN S HOSPITAL, published 2023)

Tests used:
[1] = target: T1, Recombinant human ALK1-Fc (ALK1 extracellular domain-IgG Fc fusion protein) (human, UniProt P37023 22-118); assay: BLI (Octet Red), FIG. 2A
T1 construct: extracellular domain; Bought reagent (R&D #370AL is named for the luciferase assay); also called immobilized ALK1; ACVRL1; not shown: IgG Fc of the bought fusion protein (captured on anti-human IgG Fc sensors)
Protocol: (§1) To characterize the biochemical interactions of the scFv clones with recombinant human ALK1 and BMPR2 receptors, we used Bio-Layer Interferometry (Octet Red 384, ForteBio). Receptors, expressed as IgG Fc fusion proteins (i.e., ALK1-Fc, and BMPR2-Fc) were immobilized onto Anti-Human IgG Fc Capture Sensors (ForteBio, #18-0015) at a concentration of 10 µg/mL in an equilibration buffer of HEPES 20 mM (GIBCO #15630), 0.05% Tween-20 (Promega #H5151), and Imidazole 25 mM (SIGMA #10250) in PBS. All the clones were tested at different ranges of concentration in equilibration buffer: 50 nM, 100 nM, 200 nM, and 400 nM. The ForteBio program methodology was set as follows: Baseline equilibration of 60 s, loading time of 60 s, washing time of 120 s, association time of 300 s, and dissociation time of 600 s. The binding kinetics were analyzed using the ForteBio data analysis software.
(§2) Bio-Layer Interferometry was used to determine the affinities of scFv clones for human BMPR2 and ALK1 receptors. The binding kinetics of scFv clones ALK1.3 (FIG. 1A) and ALK1.8 (FIG. 1B) versus immobilized ALK1; and BMPR2.12 (FIG. 1C) and BMPR2.23 (FIG. 1D) against BMPR2 are shown.

[2] = target: T2, Recombinant human BMPR2-Fc (BMPR2 extracellular domain-IgG Fc fusion protein) (human, UniProt Q13873 27-150); assay: BLI, immobilized BMPR2, FIG. 4C
T2 construct: extracellular domain; also called immobilized BMPR2; BMPRII; not shown: IgG Fc of the fusion protein (captured on anti-human IgG Fc sensors)
T2 sequence (looked up): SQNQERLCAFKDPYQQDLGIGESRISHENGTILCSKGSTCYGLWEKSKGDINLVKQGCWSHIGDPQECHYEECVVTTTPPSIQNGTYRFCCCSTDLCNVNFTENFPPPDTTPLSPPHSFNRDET
Protocol: as §1

[3] = target: T1, Recombinant human ALK1-Fc (ALK1 …); assay: BLI, FIG. 4B
Protocol: as §1

[4] = target: T1, Recombinant human ALK1-Fc (ALK1 …); assay: BLI, immobilized ALK1, FIG. 4D
Protocol: as §1

[5] = target: T2, Recombinant human BMPR2-Fc (BMPR2 …); assay: BLI (Octet Red), FIG. 2B
Protocol: as §1, §2

[6] = target: T1, Recombinant human ALK1-Fc (ALK1 …); assay: BLI (Octet Red), immobilized ALK1, FIG. 2A
Protocol: as §1, §2

[7] = target: T2, Recombinant human BMPR2-Fc (BMPR2 …); assay: BLI, FIG. 4C
Protocol: as §1

[8] = target: T1, Recombinant human ALK1-Fc (ALK1 …); assay: BLI, immobilized ALK1, FIG. 4B
Protocol: as §1

T1 sequence (P37023 22-118): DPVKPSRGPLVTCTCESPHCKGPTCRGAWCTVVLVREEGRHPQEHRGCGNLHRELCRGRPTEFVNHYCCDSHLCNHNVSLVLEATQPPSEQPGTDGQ

B1: scFv clone ALK1.3 (anti-ACVRL1/ALK1) (scFv)
scFv: QSALTQPASVSGSPGQSITISCAGTSSDVGTYNYVSWYQQHPGKAPKLMIYDVSKRPSGVPDRFSGSKSGNTASLTISGLQAEDEADYYCYSYTTSSTWVFGGGTKVTVLGEGKSSGSGSESKASQVQLQESGPGLLKPSQTLSLTCTVSGDSIGSGDYYWSWIRQPPGKGLEWIGYSYHTGSTDYNPSLKSRVSISVDRSKNQFSLKLRSVTAADTAVYYCARDYYGYLGYWGQGTLVTVSS
notes: Human scFv from phage display, VL-linker-VH, expressed in E. coli
Q: Does B1 bind [1]?
A: binds

Q: Does B1 bind [2]?
A: no binding

B2: Biotinylated scFv ALK1.3 (scFv)
scFv: QSALTQPASVSGSPGQSITISCAGTSSDVGTYNYVSWYQQHPGKAPKLMIYDVSKRPSGVPDRFSGSKSGNTASLTISGLQAEDEADYYCYSYTTSSTWVFGGGTKVTVLGEGKSSGSGSESKASQVQLQESGPGLLKPSQTLSLTCTVSGDSIGSGDYYWSWIRQPPGKGLEWIGYSYHTGSTDYNPSLKSRVSISVDRSKNQFSLKLRSVTAADTAVYYCARDYYGYLGYWGQGTLVTVSS
modifications: biotinylated (DSB-X Biotin Protein Labeling Kit; average 1.5-2 sites per molecule; sites not stated)
notes: ALK1.3 scFv after low substitution ratio biotinylation; also called ALK1.3-Bio
Q: Does B2 bind [3]?
A: binds

Q: Does B2 bind [2]?
A: no binding

B3: scFv clone BMPR2.23 (anti-BMPR2/BMPRII) (scFv)
scFv: QAVLTQPSSLSASPGASASLTCTLHSGINVATYRIYWYQQKPGSPPQYLLTYKSDLDKHQGSGVPSRFSGSKDASANAGILLISGLQSDDEGDYYCLIWHDYVWYFGGGTKVTVLGEGKSSGSGSESKASEVQLLESGGGLVQPGRSLRLSCAASGFTFDDYAMHWVRQAPGKGLEWVSGISWNSGSIGYADSVKGRFTISRDNAKNSLYLQMNSLRAEDTALYYCAKGGWGSSTHYYYGMDVWGQGTTVTVSS
Q: Does B3 bind [4]?
A: no binding

B4: Biotinylated scFv BMPR2.23 (scFv)
scFv: QAVLTQPSSLSASPGASASLTCTLHSGINVATYRIYWYQQKPGSPPQYLLTYKSDLDKHQGSGVPSRFSGSKDASANAGILLISGLQSDDEGDYYCLIWHDYVWYFGGGTKVTVLGEGKSSGSGSESKASEVQLLESGGGLVQPGRSLRLSCAASGFTFDDYAMHWVRQAPGKGLEWVSGISWNSGSIGYADSVKGRFTISRDNAKNSLYLQMNSLRAEDTALYYCAKGGWGSSTHYYYGMDVWGQGTTVTVSS
modifications: biotinylated (DSB-X Biotin Protein Labeling Kit; average 1.5-2 sites per molecule; sites not stated)
notes: BMPR2.23 scFv after biotinylation
Q: Does B4 bind [4]?
A: no binding

B5: scFv clone BMPR2.12 (anti-BMPR2/BMPRII) (scFv)
scFv: QSALTQPASVSGSPGQSITISCTGTSSDVGGYKSVSWYQQHPGKAPKLMIYDVSNRPSGVSDRFSGSKSGNTASLTISGLQAEDEADYYCSSYTSSSSLWVFGGGTKLTVLGEGKSSGSGSESKASQVQLVQSGAEVKKPGSSVKVSCKASGGTFSSYAISWVRQAPGQGLEWMGRIIPILGIANYAQKFQGRVTMTEDTSTDTAYMELSSLRSEDTAVYYCATDLWGVGADWGQGTLVTVSS
notes: as for B1
Q: Which results are given for B5?
A: binding result [5]: binds; binding result [6]: no binding

B6: Biotinylated scFv BMPR2.12 (scFv)
scFv: QSALTQPASVSGSPGQSITISCTGTSSDVGGYKSVSWYQQHPGKAPKLMIYDVSNRPSGVSDRFSGSKSGNTASLTISGLQAEDEADYYCSSYTSSSSLWVFGGGTKLTVLGEGKSSGSGSESKASQVQLVQSGAEVKKPGSSVKVSCKASGGTFSSYAISWVRQAPGQGLEWMGRIIPILGIANYAQKFQGRVTMTEDTSTDTAYMELSSLRSEDTAVYYCATDLWGVGADWGQGTLVTVSS
modifications: biotinylated (DSB-X Biotin Protein Labeling Kit; average 1.5-2 sites per molecule; sites not stated)
notes: BMPR2.12 scFv after low substitution ratio biotinylation; also called BMPR2.12-Bio
Q: What does the source list for B6?
A: binding result [7]: binds; binding result [8]: no binding
